Test results taken from patent publication EP2216341A1, “Transferrin variants and conjugates” (Novozymes Biopharma UK Limited, priority 2009, dated 2010).

molecular target: transferrin receptors on human K562 erythroleukemic cells; test: cell-based or functional assay

Substance | Specific iron uptake Bmax (fmol 55Fe/10^6 cells x 25min) | Specific iron uptake Kd (nM transferrin) | Total Iron Uptake Bmax (fmol 55Fe/10^6 cells x 25min)
Fluorescein conjugated thiotransferrin (S415C, T613A) (ligand) | 3250 | 189 nM | 4160
Human plasma-derived apo-transferrin (Calbiochem 616419) (from UniProt P02787 20-698) (ligand) |  |  | 4250
recombinant thiotransferrin (S28C, S415A, T613A) (ligand) | 3020 | 209 nM | 4210

More lines, now with the values ahead:

Specific iron uptake Bmax (fmol 55Fe/10^6 cells x 25min) | Specific iron uptake Kd (nM transferrin) | Total Iron Uptake Bmax (fmol 55Fe/10^6 cells x 25min) | Substance
2430 | 154 nM | 3290 | Fluorescein conjugated thiotransferrin (S28C, S415A, T613A) (ligand)
2360 | 203 nM | 3690 | recombinant thiotransferrin (S415C, T613A) (ligand)
2830 | 130 nM | 4050 | recombinant transferrin (S415A, T613A) (ligand)
